Source: the nanobody polyreactivity screen of Harvey et al. (2022)

Test: yeast display, Sf9 membrane polyspecificity reagent, FACS + sequencing; frameworks hold sequencing errors
Method in brief: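 Polyreactivity labels are assigned by the sorting gate from which each nanobody was recovered. The gates were low and high (top ~1%), set on anti-HA fluorescence for expression and streptavidin fluorescence for reagent binding. Before sorting, galactose-induced (36–48 hours) yeast display cells were stained for 1 hour at 4 °C with 10% biotinylated, detergent-solubilized Sf9 membrane reagent.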

Row | Sequence | polyreactivity (PSR sort gate)
1 | QVQLVESGGGLVQAGGSLRLSCAASGRTFVSNAMGWYRQAPGKERELVAAINSGGSTTYADSVKGRFTISRDNAKNTVYLKMNSLIPEDTAVYYFARRSRYSKGYDYWGQGTQVTVSS | low polyreactivity
2 | QVQLVESGGGLVQAGGSLRLSCAASGFTFSKYAMGCSRQAPGKETELVAAISRSAGSTYYADSVKRRFTISREYAKNTVYLQMNSLKPEDTAVYYCARDNPRRPSGYNYSGQGTQVTVSS | high polyreactivity
3 | QVQLVESGGGLVQAGGSLRLSCAASGITLGYYVMGWYRQAPGKERELVAAISSSGGRTYYADSVKGRFTISRDTAKNTVYLQMNSLKPEDTAVYYCAADLGRGIYDYWGQGTQVTVSS | low polyreactivity
4 | QVQHVESGGRLVQAGGSLRLSCAASGSIFAAYAMGWYRQAPGKERELVAAISRSGASTYYADSVKGRFTISRDNAKNTVYLQMNSLKPVDTAVYYCAADTYAYPHDNYDYWGQGTQVTVSS | low polyreactivity
5 | QVQLVESGGGLVQAGGSLRLSCAASGIIFEGNVMGWYRQAPGKERELVAAITSDTSTNYADSVKGRFTISRDNAKNSVYLQMNSLKPEDTAVYYCDALRRYPRPNIYGYWGQGTQVTVSS | low polyreactivity
6 | QVQLVESGGGLVQAGGTLRLSCAASGRIFRENAMGWYRQAPGKERELVAAISSGGSTYYADSVKGRFTISRDNAKNTVYLQMNSLKPEDTAVYYCAADLSWSRVVFGDYDYWGQGTQVTVSS | low polyreactivity
7 | QVQLVESGGGLVQAGGSLRLSCAASGFIYYYNAMGWYSQAPGKERELVAAISSRGTSTYYADSVKGRFTISRENAKNTVYLQMNSLKPEDTAVYYCNALGNFGMDYWGQGNQVTVSS | high polyreactivity
8 | QVQLVESGGGLVQAGGSLRLSCAASGRTFIPYGMGWYRQAPGKERELVAAIRDGGSTNYADSVKGRFTISRDNAKNTVYLQMNSLKPADTAVYYCNADLPVYVDYINGGYGYWGQGTQVTVSS | low polyreactivity
9 | QVQLVESGGGLVQAGGSLRLSCAASGSIFRINAMGWYRQAPGKEREFVAAIRGSGGRTYYADSVKGRFTISRDNAKNTVYLQMNSLKPEDTAVYYCAADFSYRYFQRTSWPFDYWGQGTQVTVSS | high polyreactivity
10 | QVQIVESGGGLVQAGGSLRLSCAASGRILKYYAMGWYRPAPGKEREFVASIRYSGGSTYADSVKGRFTISRDNAKNTVYLQMNSLKPEDTAGYYCNAQLSWTKFAYRGMDYGGQGTQVTVSS | high polyreactivity
11 | QVQLVESGGVLVQAGGSLRLSCAASGLTFDPNAMGWYRQAPGKERELVATITQTDGSTYYADSVKGRFTISRDNAKNTVYLQMNSLKPEDTAVYYCDGLVSRGSDYWGQGTQVTVSS | low polyreactivity
12 | QFQLVESWGGLVQAGGSLRLSCAASGTMGWYRQAPVKERELVAAISQSGGSTYYADSVKGRFTISRDNAKNTVYLQMNSLKPEDTAVYYCAVDPLYGDPRRDYWGQGTQVTVSS | low polyreactivity
13 | QVQLVETGGGLVQAGGSLRLSCAASGSTFVYYAMGWYRQAPGKERELVAAISSGGNTKYADSVKGRFTISRDNAKNTVYLQMNSLKPEDTEVYYCARESQSYYDHDYWGQVTQVTVSS | low polyreactivity
14 | QVQLVESGGGLVQAGGSLRLSCAASGPTYKYNAMGWYRQAPGKEREMVAAISSTGSTNYADSVKGRFTISRDNAKNTVYLQMNSLKPEDTAVYYCAASFYFVQWGWYYYWGQGTQVTVSS | low polyreactivity
15 | QVQPVESAGGLVQAGGSLRLSCSASGFIFKYYAMGWYRQAPGKERELVAAISYSGTRTYYADSVKGRFTISRDNAKNTVYLQMNSLKPEDTAVYYCNARDWSFVGTYDYWGQGTQVTVSS | high polyreactivity
16 | QVQLVESGGGLVQAGGSLRLSCAASGSIFTWNVMGWYRQAPGKERELVAAISSGGSTNYADSVKGRFTISRDNAKNTVYLQMNSLKPEDTAVYYCATYFRVWYRSYDYWGQGTQVTVSS | high polyreactivity
17 | PVQLEESGGGLVQAGGSLRLSCPASGTSAYYARGWYRQAPGKERALVAGISIGGSTNYADSVKGRFTITRDNAKNTVYVQMTSLKPEDTAVAYCSVDGYVAFSPDRNNYWGQGTQVTVSS | low polyreactivity
18 | QVQLVESGGGLVQAGGSLRLSCAASGSTFFLKAMGWYRQSPGKERELVAAISYSDSGTNYADSVKGRFTISRDNAKNTVYLQMNSLKPEDTAVYYCATAVRPWYVTSGNYWGQGTQVTVSS | low polyreactivity
19 | QVQLVESGGGLVQAGGSLGLSCAASGSIFSSNVMGWYRQAPGKERELVAAISGGGGSTYYADSVKGRFTISRDNAKNTGYLQMNSLKPEDTAVYYCNRVTTWARTPKAYGYWGQGTQVTVSS | high polyreactivity
20 | QVQLVESGGGLVQAGGSLRLSCAASGLTFLWYAMGWYRQAPGKERELVAAITSGGRTKYADSVKGRFTISRDNAKNTVYLQMNSLKPEDTAVYYCAAYTQWWVYDYWGQGTQVTVSS | high polyreactivity
21 | QVQLVESGGGLVQAGGSLRLSCAASGIFRSNTMGWYRQAPGKERELVATISRRSGSTYYADSVKGRFTISRDNAKNTVYLQMNSLKPEDTAVYYCAAAAPRRKYDYWGQGTQVTVSS | high polyreactivity
22 | QVQLVESGVGLVQAGGSLRLSCAASGITFTSYAMGWYRQAPVKERELVAAISSSGVRTYYADSVKGRFTISRDNSKNTVYLQMNSLKPEDTAVYYCATRRRVLYGYDYWGQGTQVTVSS | high polyreactivity

Row | Sequence | polyreactivity (PSR sort gate)
23 | QVQLVESGGGLVQAGGSLRISCAASGFTFYSNDMGWYRQAPGKERELVAAISYSGGSTYYADSVKGRFTISRDNAKNTVYLQMNSLKPEDTAVYYCAAGGLQQGDYWGQGTQVTVSS | low polyreactivity
24 | QVQLVESGGGLVQAGGSLRLSCAASGLIFATYAMGWSRQAPGKERELVAAISYRGSRTYYADSVKGRFTISRDNAMTTVYLQMNILKPEDTGVYYCAAVYRTYGIGPNNYWGQGTQVTVSS | high polyreactivity
25 | QVQLVESGGGLVQAGGSLRLSCAASGRILRYNAMGWYRQAPGKERELVAAITRTGGITRYADSVKGRFTISRDNAKNTVSLQMNSLNPQDTAVYYCNTYPRYGYVLSWPQGYDYWGQGTQVTVSS | low polyreactivity
26 | QVQLVESGGGLVQAGGSLRLTSAASGFIFWPYLMGWYRQAPGKDRELVAAISQGDGSTYYADSVKVRFTISRDNAKNTVYLQMNSLKGEDTAVYYCAADVTVAWYPVYPGFYYWGQGTQVTVSS | low polyreactivity
27 | QVQLVESGGGLVQAGGSLRLSCAASGGIFYRYVMRWYRQAPGKERELVAAITFSGGSTYYSDSVKGRFTISRDNAKNTVYLQMNSLKPEDTAVYYCAADTYYNPYWLDYWGQGTQVTVSS | low polyreactivity
28 | QVQLVESGGGLVQAGGSLRLSCAASGFTFRGNAMGWYRQAPVKERELVAAITSSDDSTYYADSVKGRFTISRDLSKNTVYLQMNSLKPEDTAVYYCAAVANGYWTYEYWGQGTQVTVSS | low polyreactivity
29 | QVQLVESGGGLDQAGGSLRLSCADSGSLSDWNAMVSYRQAAGKEREWVAAINWSGDTTYYADSVKGRFTISRDNAKNTFYLQMNCLNPEDTAVYYCAAELVVDYDWYDYWGQGTQVTVSS | high polyreactivity
30 | QVQLVESGGGLVQAGGSLRLSCAASGGIFGVYAMGWYRQAPGKERELVAAISQSDTSTYYADSVKGRFTISRDNAKNTVYLQMNSLKPEDTAVYYCAAEYYLDYYTWFDYWGQGTQVTVSS | high polyreactivity
31 | QVQLVESVVGLDQAGGSLSLSCAASAIILYYYSMGWYRQAPGKEREVVAAISSGGNTYYADSVKGRFTISRDNAKNTVYFQMNSLKPEDTAVYYCAAGNVIGGEYDYWGLGTQVTVSS | low polyreactivity
32 | QVQLGESGGGLVQAGGSLRLSCAGSGRTFVRSARGWSSQAPGKARELVARITSRGTSTYYADSVKGRFTSSRDNAKNTDYLLMNSLNPEDNAVYYCNNVRTFRDNSRYDYWGQGTHVTVSS | low polyreactivity
33 | QVQLVESGGGLLQAGGSLRLSCAASGRTFSYYAMGWYRQAPGKERELVAAISWRGGSTYYADSVKGRFTISRDNAKNTVYLQMNSLKPEDTAVYYCAALPRYALGEDYWGQGSQVTVSS | high polyreactivity
34 | QVQLVESGGGLVQAGGSVRLSCAASGRIFGYYAMGWYRQAPGKERELVAAINWNVGSTYYADSVKGRFTISRDNAKNTVYLQMNSLKPEDTAVYYCAAVGRYSRLLGKYDYWGQGTQVTVSS | low polyreactivity
35 | QVQLVESGGGLVQAGGSLRLSCAASGSTFRYYAMGWYRQAPGKERELVAAISYRGVRTNYADSVKGRFTISRDHAKNTVYLQMNSLKPEDTAVYYCADRFGRSSSGSPYDRYGYWGQGTQVTVSS | high polyreactivity
36 | QVQLVESGGGLVQAGGSLRLSCADSGSTFAGNAMGWYRQAPGKERELVAAIVSSTGSTYYADSVKGRFTISRDNAKNTVYLQMNSLKPEDTAVYYCNKTSFLVKLDYWGQGTQVTVSS | low polyreactivity
37 | QVQLVESGGGLVQAGGSLRLSCAASGRTFWSYAMGWYRQAPGKVRELVAAITSSGGTTNYADSVKGRFTISRDNAKNTVYLQMNSLKPEDTAVYYCAADNGGAGYYYGYVWYDYWGQGTQVTVSS | low polyreactivity
38 | QVQLVESGGGLVQAGGSLRLSCAASGSTFFTNAMGWYRPAPGKERELVAAITINDGSTFYADSVKGRFTISRDNAKNSDYLQMNSLKPEDTAVYYCNTDGVDLYDYWGQGTQVTVSS | low polyreactivity
39 | QVQLVESGGGLVQAGGSLRLSCAASGRIGYYAMGWNRQAPGKERELVAAISYGGGSTYYADSVKGRFTISRDNAKNTVYLLMNSLKPEDTAVYYCAARWGKSWRGYGYWGQGTQVSVSS | high polyreactivity
40 | QVQLVESGGGLVQAGGSLRLSCAASGRTLYSYAMGWYRQAPGKERELVAAITSGGRTYYADSVKGRFTISRDNAKNTVYLQMNRLTPEDTAVYYCNDRRTFPRYDRNYESWGQGTQVTVSS | high polyreactivity
41 | QVQLVESGGGLVQAGGSLRLSCAASGNTFYTNVMGWYRQAPGKERELVAAITQSGARTYYADSVKGRFTISRDNAKNTVYLQMNSLKPEDTAVYYCASEHYFYRDYPYEFWGQGTQVTVSS | high polyreactivity
42 | QVQLVESGGGLVQAGGSLRLTCAASGRTFRIYAMGWYRQAPGKERELVAAITRRGGSTYYADSVKGRFTISLDNAKNTVNLQMNSLKPEDTAVYYCAAELRYGYLYPYDSWGQGTQVTVSS | high polyreactivity
43 | QVQLVESGGGLVQAGGSLRLSCAASGSIFSDYAMGWYRQAPGKERELVAGISSGGGTTYADSVKGRFTISRDNAKNTVYLQMNSLIPEDTAVYYCNKQDQPVGRSGYPYGYDYWGQGTQVTVSS | low polyreactivity
